First the molecules themselves.
B1: RE1 wild-type (dsDNA)
DNA 1: TTACATGTTGAAATACTTGTAT
DNA 2: ATACAAGTATTTCAACATGTAA
B2: RE2 wild-type (dsDNA)
DNA 1: GTGCATGAAGAGGTATAGTCTCATGCTT
DNA 2: AAGCATGAGACTATACCTCTTCATGCAC
B3: RE1 mutant (dsDNA)
DNA 1: TTATCGCTTGAAATACTTGTAT
DNA 2: ATACAAGTATTTCAAGCGATAA
B4: RE2 mutant (dsDNA)
DNA 1: GTGTCGCAAGAGGTATAGTCTCATGCTT
DNA 2: AAGCATGAGACTATACCTCTTGCGACAC

Chain of p53 (P04637 whole entry): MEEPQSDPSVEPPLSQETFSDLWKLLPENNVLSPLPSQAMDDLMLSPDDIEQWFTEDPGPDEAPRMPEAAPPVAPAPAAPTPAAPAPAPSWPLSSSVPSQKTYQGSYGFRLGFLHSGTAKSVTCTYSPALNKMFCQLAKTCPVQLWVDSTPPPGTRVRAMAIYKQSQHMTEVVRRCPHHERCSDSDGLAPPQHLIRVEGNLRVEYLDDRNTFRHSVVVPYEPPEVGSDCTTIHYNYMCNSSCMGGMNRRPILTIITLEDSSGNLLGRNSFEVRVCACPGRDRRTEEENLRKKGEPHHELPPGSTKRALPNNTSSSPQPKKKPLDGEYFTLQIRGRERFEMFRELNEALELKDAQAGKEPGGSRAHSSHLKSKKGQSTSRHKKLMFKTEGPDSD

The series has as its target p53 (UniProt P04637 1-393). In words: biotinylated DNA pull-down, western blot; 10 mM Tris-HCl pH 8.0, 40 mM KCl, 1 mM DTT, 6% glycerol, 0.05% NP-40; overnight at 4 °C; 20 µg p53, 1 µg biotinylated oligo; beads washed with Tris-EDTA (100 mM NaCl), binding buffer, PBS. The conditions noted are these: protein: recombinant; chain copies: 4; label: biotin. (In general: Immunoblotting shows a protein as a band on a membrane.)
As for B1, the binding result is “binds”.

As to B2, the binding result was “binds”.

In the case of B3, the binding result is recorded as “no binding”.

For the molecule B4, the binding result was “no binding”.

These data come from paper PMC3958868, “The Proteasome Activator PA28γ, a Negative Regulator of p53, Is Transcriptionally Up-Regulated by p53”.
